Starred links: 1 amine or outer side, 2 acyl side, 3 side chain; linkers in the order of their positions; H or OH if unused. Positions of bridges follow the written chain, without caps; N, C: chain ends. Groups on a side chain read outwards from the residue. No end group written: not given here. *: point of attachment. C20 diacid = O=C(O)CCCCCCCCCCCCCCCCCCC(=O)*; C18 diacid = O=C(O)CCCCCCCCCCCCCCCCC(=O)*; γGlu = O=C(O)[C@H](CCC(=O)[*:2])N[*:1]
T1: human amylin 3 receptor (human, UniProt P30988 25-474; O60896 24-148)
T1 sequence (looked up) 1: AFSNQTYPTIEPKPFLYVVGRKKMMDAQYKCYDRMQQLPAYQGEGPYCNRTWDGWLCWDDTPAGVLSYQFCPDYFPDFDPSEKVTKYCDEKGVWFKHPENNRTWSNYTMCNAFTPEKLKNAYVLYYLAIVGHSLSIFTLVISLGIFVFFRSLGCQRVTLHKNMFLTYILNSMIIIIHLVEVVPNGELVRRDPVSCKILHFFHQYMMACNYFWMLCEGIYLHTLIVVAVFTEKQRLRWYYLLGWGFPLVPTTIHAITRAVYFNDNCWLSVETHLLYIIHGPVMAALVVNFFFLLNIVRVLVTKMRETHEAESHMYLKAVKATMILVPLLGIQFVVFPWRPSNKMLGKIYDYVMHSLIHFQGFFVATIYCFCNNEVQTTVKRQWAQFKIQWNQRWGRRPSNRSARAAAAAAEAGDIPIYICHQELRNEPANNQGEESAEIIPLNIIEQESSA
T1 sequence (looked up) 2: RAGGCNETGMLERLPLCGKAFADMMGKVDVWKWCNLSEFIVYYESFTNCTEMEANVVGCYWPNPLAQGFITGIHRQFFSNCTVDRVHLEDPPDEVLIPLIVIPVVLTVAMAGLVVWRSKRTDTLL

T2: human calcitonin receptor (human, UniProt P30988 25-474)
T2 sequence (looked up): T1 sequence (looked up) 1

B1: Compound A76 (peptide)
peptide: SCNTSTCATQRLANEK([γGlu-C18 diacid])HKSSNNFGPILPPTKVGSETY-NH2
modifications: disulfide 2-7; N-terminus assumed
SMILES: CC[C@H](C)[C@H](NC(=O)[C@@H]1CCCN1C(=O)CNC(=O)[C@H](Cc1ccccc1)NC(=O)[C@H](CC(N)=O)NC(=O)[C@H](CC(N)=O)NC(=O)[C@H](CO)NC(=O)[C@H](CO)NC(=O)[C@H](CCCCN)NC(=O)[C@H](Cc1c[nH]cn1)NC(=O)[C@H](CCCCNC(=O)CC[C@H](NC(=O)CCCCCCCCCCCCCCCCC(=O)O)C(=O)O)NC(=O)[C@H](CCC(=O)O)NC(=O)[C@H](CC(N)=O)NC(=O)[C@H](C)NC(=O)[C@H](CC(C)C)NC(=O)[C@H](CCCNC(=N)N)NC(=O)[C@H](CCC(N)=O)NC(=O)[C@@H](NC(=O)[C@H](C)NC(=O)[C@@H]1CSSC[C@H](NC(=O)[C@@H](N)CO)C(=O)N[C@@H](CC(N)=O)C(=O)N[C@@H]([C@@H](C)O)C(=O)N[C@@H](CO)C(=O)N[C@@H]([C@@H](C)O)C(=O)N1)[C@@H](C)O)C(=O)N[C@@H](CC(C)C)C(=O)N1CCC[C@H]1C(=O)N1CCC[C@H]1C(=O)N[C@H](C(=O)N[C@@H](CCCCN)C(=O)N[C@H](C(=O)NCC(=O)N[C@@H](CO)C(=O)N[C@@H](CCC(=O)O)C(=O)N[C@H](C(=O)N[C@@H](Cc1ccc(O)cc1)C(N)=O)[C@@H](C)O)C(C)C)[C@@H](C)O
B2: Compound A73 (peptide)
peptide: SCNTSTCATQRLANEK([γGlu-C20 diacid])HKSSNNFGPILPPTKVGSETY-NH2
modifications: disulfide 2-7; N-terminus assumed
SMILES: CC[C@H](C)[C@H](NC(=O)[C@@H]1CCCN1C(=O)CNC(=O)[C@H](Cc1ccccc1)NC(=O)[C@H](CC(N)=O)NC(=O)[C@H](CC(N)=O)NC(=O)[C@H](CO)NC(=O)[C@H](CO)NC(=O)[C@H](CCCCN)NC(=O)[C@H](Cc1c[nH]cn1)NC(=O)[C@H](CCCCNC(=O)CC[C@H](NC(=O)CCCCCCCCCCCCCCCCCCC(=O)O)C(=O)O)NC(=O)[C@H](CCC(=O)O)NC(=O)[C@H](CC(N)=O)NC(=O)[C@H](C)NC(=O)[C@H](CC(C)C)NC(=O)[C@H](CCCNC(=N)N)NC(=O)[C@H](CCC(N)=O)NC(=O)[C@@H](NC(=O)[C@H](C)NC(=O)[C@@H]1CSSC[C@H](NC(=O)[C@@H](N)CO)C(=O)N[C@@H](CC(N)=O)C(=O)N[C@@H]([C@@H](C)O)C(=O)N[C@@H](CO)C(=O)N[C@@H]([C@@H](C)O)C(=O)N1)[C@@H](C)O)C(=O)N[C@@H](CC(C)C)C(=O)N1CCC[C@H]1C(=O)N1CCC[C@H]1C(=O)N[C@H](C(=O)N[C@@H](CCCCN)C(=O)N[C@H](C(=O)NCC(=O)N[C@@H](CO)C(=O)N[C@@H](CCC(=O)O)C(=O)N[C@H](C(=O)N[C@@H](Cc1ccc(O)cc1)C(N)=O)[C@@H](C)O)C(C)C)[C@@H](C)O

Molecular target: T1, human amylin 3 receptor
Assay: cell-based or functional assay

pEC50 (cAMP accumulation), 0% HSA [pEC50]	pEC50 (cAMP accumulation), 0.1% HSA [pEC50]	pEC50 (cAMP accumulation), 4% HSA [pEC50]	Binder
11.7	10.5	8.7	B1
12.5	12.6	12.5	KCNTATCATQRLANFLVHSSNNFGPILPPTNVGSNTY-NH2 (disulfide 2-7; ends not checked) [Pramlintide]
12.1	10.6	8.8	B2

Molecular target: T2, human calcitonin receptor
Assay: cell-based or functional assay

pEC50 (cAMP accumulation), 0% HSA [pEC50]	pEC50 (cAMP accumulation), 0.1% HSA [pEC50]	pEC50 (cAMP accumulation), 4% HSA [pEC50]	Binder
10.5	9.4	8.1	B1
11.4	11.2	11.1	KCNTATCATQRLANFLVHSSNNFGPILPPTNVGSNTY-NH2 (disulfide 2-7; ends not checked) [Pramlintide]
11.3	9.6	7.9	B2

Reference: US20200115430A1 (I2O THERAPEUTICS, published 2020)
